The target of the assay is extracellular domain of Transferrin Receptor 1 (UniProt P02786 89-760). Kind of assay: BLI.

Starred links: 1 amine or outer side, 2 acyl side, 3 side chain; linkers in the order of their positions; H or OH if unused. Positions of bridges follow the written chain, without caps; N, C: chain ends. No end group written: not given here. TBMB = c1c(C[*:1])cc(C[*:3])cc1C[*:2]

Sequence of extracellular domain of Transferrin Receptor 1 (P02786 89-760): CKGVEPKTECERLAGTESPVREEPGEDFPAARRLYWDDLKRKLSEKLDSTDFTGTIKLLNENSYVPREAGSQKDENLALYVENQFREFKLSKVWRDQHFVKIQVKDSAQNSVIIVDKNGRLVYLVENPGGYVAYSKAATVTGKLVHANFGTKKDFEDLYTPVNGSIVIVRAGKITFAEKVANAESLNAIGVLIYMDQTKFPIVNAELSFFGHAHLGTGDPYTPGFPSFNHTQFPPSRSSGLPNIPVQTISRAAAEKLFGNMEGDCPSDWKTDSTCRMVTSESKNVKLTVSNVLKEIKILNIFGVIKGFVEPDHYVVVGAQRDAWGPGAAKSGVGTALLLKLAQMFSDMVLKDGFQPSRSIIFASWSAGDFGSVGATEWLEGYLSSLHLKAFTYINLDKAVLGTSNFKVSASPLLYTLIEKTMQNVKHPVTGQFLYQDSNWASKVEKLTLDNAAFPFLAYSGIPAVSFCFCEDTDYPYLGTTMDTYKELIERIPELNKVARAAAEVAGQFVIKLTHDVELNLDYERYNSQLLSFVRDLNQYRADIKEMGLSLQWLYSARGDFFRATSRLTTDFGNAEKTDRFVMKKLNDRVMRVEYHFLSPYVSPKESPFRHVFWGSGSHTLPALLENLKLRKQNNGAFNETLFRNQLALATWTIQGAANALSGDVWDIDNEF

B1: BrainBike-4 as used in biolayer interferometry (peptide)
chain: CVHWDCRQWC
modifications: linker 1-6-10 via TBMB
On to B1, for which the Kd came out at 25 µM.

For the origin of these results see paper PMC10763564 (2023).
